# Results from patent US20250326796A1 (SHANGHAI UNIVERSITY, published 2025).
# Target: T1, STING (mouse, UniProt Q3TBT3 1-378)
# T1 sequence (looked up): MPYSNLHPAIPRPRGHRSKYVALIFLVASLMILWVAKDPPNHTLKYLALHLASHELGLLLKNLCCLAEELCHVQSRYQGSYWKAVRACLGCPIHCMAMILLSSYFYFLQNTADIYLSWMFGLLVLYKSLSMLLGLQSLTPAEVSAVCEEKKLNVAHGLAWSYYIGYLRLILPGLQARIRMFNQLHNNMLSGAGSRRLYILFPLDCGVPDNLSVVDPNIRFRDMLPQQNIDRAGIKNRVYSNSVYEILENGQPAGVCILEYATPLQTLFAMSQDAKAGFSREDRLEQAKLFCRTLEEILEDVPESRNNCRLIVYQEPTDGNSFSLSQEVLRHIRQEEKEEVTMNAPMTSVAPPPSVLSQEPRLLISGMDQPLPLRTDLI
# Test: cell-based or functional assay
row,Binder,"IC50 for inhibiting Ifnb mRNA (RT-qPCR, RAW264.7 cells stimulated with 2'3'-cGAMP) [µM]"
1,Ac-NFNVAHGLAWSYYIGYLRLIL-NH2 (not fully specified) [SIP-6],35.3
2,NFNVAHGLAWSYYIGYLRLILPELQARIRTYN (N-terminus acetylated (-Ac); C-terminus amidated (-NH2)) [SIP-8],32.6
3,NFNVAHGLAWSYYIGYLRLILPELQ (N-terminus acetylated (-Ac); C-terminus amidated (-NH2)) [SIP-7],18.9
4,NFNVAHGLAWSYYIGYLRLILPELQARIRTYNQHYNNLLR (N-terminus acetylated (-Ac); C-terminus amidated (-NH2)) [SIP-11],53.2
5,NFNVAHGLAWSYYIGYLRLILPELQARIRTYNQHYNNL (not fully specified; N-terminus acetylated (-Ac); C-terminus amidated (-NH2)) [SIP-9],41.9
6,NFNVAHGLAWSYYIGYLRLILPELQARIRTYNQHYNNLL (N-terminus acetylated (-Ac); C-terminus amidated (-NH2)) [SIP-10],66.3
7,Ac-LAWSYYIGYLRL-NH2 [SIP-1],8.6
8,Ac-NFNVAHGLAWSYYIG-NH2 (not fully specified) [SIP-5],28.5
